Measurements taken from IntAct's records for PubMed 23871486.

B1: Cytotoxic and regulatory T-cell molecule (Homo sapiens), O95727-1 (parent)
chain: MWWRVLSLLAWFPLQEASLTNHTETITVEEGQTLTLKCVTSLRKNSSLQWLTPSGFTIFLNEYPALKNSKYQLLHHSANQLSITVPNVTLQDEGVYKCLHYSDSVSTKEVKVIVLATPFKPILEASVIRKQNGEEHVVLMCSTMRSKPPPQITWLLGNSMEVSGGTLHEFETDGKKCNTTSTLIIHTYGKNSTVDCIIRHRGLQGRKLVAPFRFEDLVTDEETASDALERNSLSSQDPQQPTSTVSVTEDSSTSEIDKEEKEQTTQDPDLTTEANPQYLGLARKKSGILLLTLVSFLIFILFIIVQLFIMKLRKAHVIWKKENEVSEHTLESYRSRSNNEETSSEEKNGQSSHPMRCMNYITKLYSEAKTKRKENVQHSKLEEKHIQVPESIV
partner: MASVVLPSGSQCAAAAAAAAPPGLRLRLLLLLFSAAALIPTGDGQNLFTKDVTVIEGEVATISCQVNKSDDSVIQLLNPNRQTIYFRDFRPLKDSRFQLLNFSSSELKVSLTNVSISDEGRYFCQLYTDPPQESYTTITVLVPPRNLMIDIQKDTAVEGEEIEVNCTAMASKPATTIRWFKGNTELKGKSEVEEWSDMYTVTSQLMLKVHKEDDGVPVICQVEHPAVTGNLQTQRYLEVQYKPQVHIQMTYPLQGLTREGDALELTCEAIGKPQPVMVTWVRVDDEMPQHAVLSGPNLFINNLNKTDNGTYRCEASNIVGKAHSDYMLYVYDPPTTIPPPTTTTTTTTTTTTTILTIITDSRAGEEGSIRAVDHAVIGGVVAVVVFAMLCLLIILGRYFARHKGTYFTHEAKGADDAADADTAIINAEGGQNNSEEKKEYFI

Variants of: B1
Details: with cadm1_human CADM1, Q9BY67

Variant	effect of a mutation on the interaction
F56A;T57A;K67A;Y101A	decreasing interaction strength
F56A	decreasing interaction strength
K67A	decreasing interaction strength
Y101A	decreasing interaction strength
T57A	decreasing interaction strength
